Key:
Assay in all cases: ELISA
[1] = target: cynomolgus Ror2 (cynomolgus)
[2] = target: mouse Ror2 (mouse) (UniProt Q9Z138)
[3] = target: human Ror2 (receptor tyrosine kinase-like orphan receptor 2) (human) (UniProt Q01974)
Chain of human Ror2 (receptor tyrosine kinase-like orphan receptor 2) (human) (Q01974 34-403 limits assumed): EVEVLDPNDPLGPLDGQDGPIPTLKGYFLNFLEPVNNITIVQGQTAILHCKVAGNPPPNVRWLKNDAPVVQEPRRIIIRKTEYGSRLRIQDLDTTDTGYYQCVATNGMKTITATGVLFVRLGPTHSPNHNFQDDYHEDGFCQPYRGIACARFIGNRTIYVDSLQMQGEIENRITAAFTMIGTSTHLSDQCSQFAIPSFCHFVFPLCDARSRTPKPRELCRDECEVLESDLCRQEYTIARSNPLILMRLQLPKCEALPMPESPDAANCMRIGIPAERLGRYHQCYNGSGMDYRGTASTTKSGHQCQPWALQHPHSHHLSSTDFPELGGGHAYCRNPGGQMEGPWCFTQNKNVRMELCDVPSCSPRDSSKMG

Chain of mouse Ror2 (mouse) (Q9Z138 34-403 limits assumed): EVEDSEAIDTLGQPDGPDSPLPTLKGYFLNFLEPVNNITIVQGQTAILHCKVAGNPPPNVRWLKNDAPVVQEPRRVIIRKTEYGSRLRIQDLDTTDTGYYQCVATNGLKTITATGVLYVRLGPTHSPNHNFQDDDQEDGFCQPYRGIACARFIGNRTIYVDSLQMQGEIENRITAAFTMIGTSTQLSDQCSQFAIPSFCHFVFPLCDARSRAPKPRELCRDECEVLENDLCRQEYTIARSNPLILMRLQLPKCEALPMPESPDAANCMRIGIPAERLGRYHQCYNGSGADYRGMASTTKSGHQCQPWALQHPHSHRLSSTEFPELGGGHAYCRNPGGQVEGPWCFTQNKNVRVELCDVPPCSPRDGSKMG

B1: conditionally active antibody BAP048 (antibody, from a related filing, V domains shown)
VH: EVQLVQSGAEVKKPGESLRISCKGSGYTFTEYTMHWVRQAPGQGLEWMGGINTNNGGTGYNQKFKGRVTISADKSISTAYLQWSSLKASDTAMYYCAHGSLYSYGNSYFDYWGQGTLVTVSS
VL: AIQLTQSPSSLSASVGDRVTITCSATSSVSYMHWYLQKPGQSPQLLIYGTSNLASGVPDRFSGSGSGTDFTLKISRVEAEDVGVYYCQQRSSYPFTFGQGTKVEIK
Work on B1 yielded an EC50 [1] of 0.327 µg/mL, an EC50 [2] of 7.65 µg/mL and an EC50 [3] of 0.201 µg/mL.

— US20240092901A1
